In US20210340217A1, “NOVEL PEPTIDES AND COMBINATION OF PEPTIDES FOR USE IN IMMUNOTHERAPY AGAINST OVARIAN CANCER AND OTHER CANCERS” (Immatics Biotechnologies GmbH, priority 2017, published 2021):

biological target: HLA-B*44:02 (Homo sapiens, UniProt P01889, A223V/A65T/A93T/A95T/D201E/D98Y/E176V/E187L/E204Q/E69K/G107R/H137Y/K202T/L105A/L119I/N104T/N87E/Q56L/Q94N/R106L/R155S/R180D/S101N/S121R/S35A/S48T/T118I/V36M/W191S/Y140D/Y91S); assay: MHC binding assay (UV-ligand exchange, beta2m ELISA); settings: peptide exchange yield
Excerpt: (§1) Candidate peptides for T cell based therapies according to the present invention were further tested for their MHC binding capacity (affinity). The individual peptide-MHC complexes were produced by UV-ligand exchange, where a UV-sensitive peptide is cleaved upon UV-irradiation, and exchanged with the peptide of interest as analyzed. Only peptide candidates that can effectively bind and stabilize the peptide-receptive MHC molecules prevent dissociation of the MHC complexes. To determine the yield of the exchange reaction, an ELISA was performed based on the detection of the light chain (β2m) of stabilized MHC complexes. The assay was performed as generally described in Rodenko et al. (Rodenko et al., 2006).
(§2) 96 well MAXISorp plates (NUNC) were coated over night with 2 ug/ml streptavidin in PBS at room temperature, washed 4× and blocked for 1 h at 37° C. in 2% BSA containing blocking buffer. Refolded HLA-A*02:01/MLA-001 monomers served as standards, covering the range of 15-500 ng/ml. Peptide-MHC monomers of the UV-exchange reaction were diluted 100-fold in blocking buffer. Samples were incubated for 1 h at 37° C., washed four times, incubated with 2 ug/ml HRP conjugated anti-β2m for 1h at 37° C., washed again and detected with TMB solution that is stopped with […]. Absorption was measured at 450 nm. Candidate peptides that show a high exchange yield (preferably higher than 50%, most preferred higher than 75%) are generally preferred for a generation and production of antibodies or fragments thereof, and/or T cell receptors or fragments thereof, as they show sufficient avidity to the MHC molecules and prevent dissociation of the MHC complexes.

Substance | Peptide exchange
438 (SEVDSPNVL; listed as Homo sapiens) [compound 438] | “+++” (>50 = +++)
422 (SETTFSLIF; listed as Homo sapiens) [compound 422] | “+++” (>50 = +++)
194 (KEVDPTSHSY; listed as Homo sapiens) [compound 194] | “++” (>20% = ++)
418 (FEDAQGHIW; listed as Homo sapiens) [compound 418] | “+++” (>50 = +++)
186 (REGPEEPGL; listed as Homo sapiens) [compound 186] | “++” (>20% = ++)
215 (SEDGLPEGIHL; listed as Homo sapiens) [compound 215] | “++” (>20% = ++)
180 (REAGDEFELRY; listed as Homo sapiens) [compound 180] | “++” (>20% = ++)
405 (NEIWTHSY; listed as Homo sapiens) [compound 405] | “+” (>10% = +)
58 (GEMEQKQL; listed as Homo sapiens) [compound 58] | “++” (>20% = ++)
402 (RELANDELIL; listed as Homo sapiens) [compound 402] | “++” (>20% = ++)
212 (MEQKQLQKRF; listed as Homo sapiens) [compound 212] | “+++” (>50 = +++)
404 (NEAIMHQY; listed as Homo sapiens) [compound 404] | “++” (>20% = ++)
427 (HESSSHHDL; listed as Homo sapiens) [compound 427] | “++” (>20% = ++)
396 (REASGLLSL; listed as Homo sapiens) [compound 396] | “+++” (>50 = +++)
59 (SENVTMKVV; listed as Homo sapiens) [compound 59] | “+++” (>50 = +++)
195 (AEDKRHYSV; listed as Homo sapiens) [compound 195] | “++” (>20% = ++)
196 (REMPGGPVW; listed as Homo sapiens) [compound 196] | “+++” (>50 = +++)
188 (AEFAKKQPWW; listed as Homo sapiens) [compound 188] | “+++” (>50 = +++)
407 (AEHEGVSVL; listed as Homo sapiens) [compound 407] | “++” (>20% = ++)

Substance | Peptide exchange
424 (TEFPLFSAA; listed as Homo sapiens) [compound 424] | “+” (>10% = +)
436 (REPGDIFSEL; listed as Homo sapiens) [compound 436] | “++” (>20% = ++)
192 (YEFKFPNRL; listed as Homo sapiens) [compound 192] | “+++” (>50 = +++)
200 (AESIPTVSF; listed as Homo sapiens) [compound 200] | “+++” (>50 = +++)
213 (KESIPRWYY; listed as Homo sapiens) [compound 213] | “++” (>20% = ++)
177 (TEVGTMNLF; listed as Homo sapiens) [compound 177] | “+++” (>50 = +++)
420 (FESHSTVSA; listed as Homo sapiens) [compound 420] | “+” (>10% = +)
431 (AEQDPDELNKA; listed as Homo sapiens) [compound 431] | “++” (>20% = ++)
187 (GEAQTRIAW; listed as Homo sapiens) [compound 187] | “+++” (>50 = +++)
175 (AEIEPKADG; listed as Homo sapiens) [compound 175] | “++” (>20% = ++)
189 (KEFLFNMY; listed as Homo sapiens) [compound 189] | “++” (>20% = ++)
415 (REEDAALFKAW; listed as Homo sapiens) [compound 415] | “+++” (>50 = +++)
432 (EEQYIAQF; listed as Homo sapiens) [compound 432] | “+” (>10% = +)
412 (QEILTQVKQ; listed as Homo sapiens) [compound 412] | “++” (>20% = ++)
203 (IEHSTQAQDTL; listed as Homo sapiens) [compound 203] | “++” (>20% = ++)
209 (TEVSRTEL; listed as Homo sapiens) [compound 209] | “++” (>20% = ++)
183 (YEKGIMQKV; listed as Homo sapiens) [compound 183] | “++” (>20% = ++)
413 (IEALSGKIEL; listed as Homo sapiens) [compound 413] | “++” (>20% = ++)

biological target: HLA-B*07:02 (Homo sapiens, UniProt P01889); assay: as above; settings: peptide exchange yield
Excerpt: as §1, §2

Substance | Peptide exchange
132 (IPGPAQSTI; listed as Homo sapiens) [compound 132] | “++” (>20% = ++)
339 (LPAGTTGSLVF; listed as Homo sapiens) [compound 339] | “+++” (>50 = +++)
392 (KPIESTLVA; listed as Homo sapiens) [compound 392] | “+++” (>50 = +++)
128 (YPRTITPGM; listed as Homo sapiens) [compound 128] | “+++” (>50 = +++)
344 (LPTQTTSSL; listed as Homo sapiens) [compound 344] | “+++” (>50 = +++)
144 (SPSPVSSTL; listed as Homo sapiens) [compound 144] | “+++” (>50 = +++)
37 (RPLFQKSSM; listed as Homo sapiens) [compound 37] | “+++” (>50 = +++)
131 (APTEDLKAL; listed as Homo sapiens) [compound 131] | “+++” (>50 = +++)
321 (SPMDTFLLI; listed as Homo sapiens) [compound 321] | “++” (>20% = ++)
135 (RVRSTISSL; listed as Homo sapiens) [compound 135] | “+++” (>50 = +++)
333 (FPHSEMTTVM; listed as Homo sapiens) [compound 333] | “+++” (>50 = +++)
145 (SPSSPMSTF; listed as Homo sapiens) [compound 145] | “++” (>20% = ++)
352 (SPAETSTNM; listed as Homo sapiens) [compound 352] | “+++” (>50 = +++)
322 (SPDPSKHLL; listed as Homo sapiens) [compound 322] | “++” (>20% = ++)
311 (RPLFYVVSL; listed as Homo sapiens) [compound 311] | “++” (>20% = ++)
372 (IPRNPPPTLL; listed as Homo sapiens) [compound 372] | “+++” (>50 = +++)
133 (MPNLPSTTSL; listed as Homo sapiens) [compound 133] | “+++” (>50 = +++)

Substance | Peptide exchange
136 (SPFSAEEANSL; listed as Homo sapiens) [compound 136] | “+++” (>50 = +++)
148 (KPYGGSGPL; listed as Homo sapiens) [compound 148] | “+++” (>50 = +++)
295 (YPLRGSSIFGL; listed as Homo sapiens) [compound 295] | “+++” (>50 = +++)
347 (MPLTTGSQGM; listed as Homo sapiens) [compound 347] | “++” (>20% = ++)
330 (FPFVTGSTEM; listed as Homo sapiens) [compound 330] | “++” (>20% = ++)
304 (LPRPGAVL; listed as Homo sapiens) [compound 304] | “+++” (>50 = +++)
364 (TPLATTQRF; listed as Homo sapiens) [compound 364] | “++” (>20% = ++)
377 (RPRSPAGQVAAA; listed as Homo sapiens) [compound 377] | “+++” (>50 = +++)
354 (SPLPVTSLL; listed as Homo sapiens) [compound 354] | “+++” (>50 = +++)
337 (HPVETSSAL; listed as Homo sapiens) [compound 337] | “+++” (>50 = +++)
139 (SPQSMSNTL; listed as Homo sapiens) [compound 139] | “+++” (>50 = +++)
387 (APLKLSRTPA; listed as Homo sapiens) [compound 387] | “+++” (>50 = +++)
146 (IPRPEVQAL; listed as Homo sapiens) [compound 146] | “+++” (>50 = +++)
129 (APRPASSL; listed as Homo sapiens) [compound 129] | “+++” (>50 = +++)
375 (AAASPLLLL; listed as Homo sapiens) [compound 375] | “++” (>20% = ++)
345 (LPTSESLVSF; listed as Homo sapiens) [compound 345] | “++” (>20% = ++)
373 (RPRALRDLRIL; listed as Homo sapiens) [compound 373] | “+++” (>50 = +++)
